Laboratory results taken from PMC5057102, “Fabrication of an antibody-aptamer sandwich assay for electrochemical evaluation of levels of β-amyloid oligomers”.

What was measured:
[1] = target: Amyloid beta 1-42 oligomers (UniProt P05067 672-713); test: electrochemical antibody-aptamer sandwich (DPV); 20 nM, antibody capture; 0.1 M phosphate buffer (Na2HPO4/NaH2PO4) pH 7.4; incubations at 37 C (Abeta 60 min, aptamer-Au-Th 3 h); 1% BSA block; settings: label: gold nanoparticle, thionine
[2] = target: Amyloid beta 1-40 oligomers (UniProt P05067 672-711); test: electrochemical antibody-aptamer sandwich (DPV); 20 nM, antibody capture; response similar to 1-42 oligomers; 0.1 M phosphate buffer (Na2HPO4/NaH2PO4) pH 7.4; incubations at 37 C (Abeta 60 min, aptamer-Au-Th 3 h); 1% BSA block; settings: label: gold nanoparticle, thionine
Chain of Amyloid beta 1-40 oligomers (P05067 672-711): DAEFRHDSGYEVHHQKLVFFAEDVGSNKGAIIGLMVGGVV

Chain of Amyloid beta 1-42 oligomers (P05067 672-713): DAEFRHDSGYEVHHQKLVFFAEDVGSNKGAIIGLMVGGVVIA

GCCTGTGTTGGGGCGGGTGCG (ssDNA, 5'-HS (thiol)) [Abeta oligomer aptamer (thiolated, on AuNP with thionine)]
binding result [1]: binds
binding result [2]: binds
